According to US20160010082A1:

Molecular target: YPet-Mona
Test: flow cytometry of E. coli displaying the construct, 50 nM YPet-Mona; 30 minutes of expression; reference CPX display

Sequence of YPet-Mona (O89100 263-322): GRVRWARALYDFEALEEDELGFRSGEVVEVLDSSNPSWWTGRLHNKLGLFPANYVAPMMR

B1: eCPX displaying the P2 peptide at the C-terminus (protein)
chain: GQSGQGGQSGQSGDYNKNQYYGITAGPAYRINDWASIYGVVGVGYGKFQTTEYPTYKHDTSDYGFSYGAGLQFNPMENVALDFSYEQSRIRSVDVGTWILSVGYRFGSKSRRATSTVTGGYAQSDAQGQMNKMGGFNLKYRYEEDNSPLGVIGSFTYTEKSRTASGGQSGQPAPSIDRSTKPPL
- fold improved display level compared to CPX: 9 fold
